Literature values in publication PMC12186298, “Phase 1 clinical trial of eneboparatide, a novel PTH receptor 1 agonist” (Endocrine Connections, 2025).

System: patients with hypoparathyroidism
Details: not associated with increased elimination of phosphorus in urine; cited from earlier work
Description: Hyperphosphataemia enhances the risk of long-term development of cardiovascular diseases that is particularly important in patients with renal insufficiency, but also exists in patients with normal renal function ([16]). […] This decrease in sPh was apparent after 14 days of treatment in connection with a reduction in the rate of renal reabsorption of phosphorus. The impact of eneboparatide on sPh was primarily observed within the first 12 h after dosing.

B1: PTH(1–84): parathyroid hormone (1–84) therapy, cited comparator (protein, UniProt P01270 32-115, looked up)
Parathyroid hormone: SVSEIQLMHNLGKHLNSMERVEWLRKKLQDVHNFVALGAPLAPRDAGSQRPRKKEDNVLVESHEKSLGEADKADVNVLTKAKSQ
modifications: Parathyroid hormone
notes: parathyroid hormone (1–84) therapy, cited comparator
sPh after the onset of therapy: decreased rapidly and significantly
